This data set in a line: label from the status in PepcDB records.
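Also: failed if final PepcDB status was selected cloned or expressed and not failed if soluble or beyond.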

As to “MSNKRIGVVIVSYGHEQDVANLVDTFADQLKTGDRVVVVDNRKPWVLKDAVGERLEKHGAEIINHDNGGFAAGCNVGAAHIVDDVDLLFFLNPDTVIDDPTLFNSLRRVDEQWAAFMPYLLLPDSTINSAGNALHISGLSWVTGLDEKPVEGSSEVTDISIASGACLAVRVDWWKRLGGMEELYFMYHEDTDFSARLLLAGGRIGLLHSAYVTHHYDYAKGDYKWIYIERNRHVLLLSVLPLPLLFVLIPQILGVNLGLWAIAAKEKRVGLKVKSLRLLIRDLPAIFKLRRSTQELAELTPSQYLAKMEWRLDNPNLGNIGSNKIVATGYKTYYKLCMSILKLLA”, the protein production entry was “failed”.

For “MSNQQNVWVAYATQTQQFHIRVAFQQGMTAWQAIESSGLLTQVELPQPYHLGIFGVRCVADRLLEAGDRVEIYRPLTINPKDIRRKRAEKNPVGRFQKGNRFK”, the protein production entry is on record as “failed”.

In the case of “MSNSHLGTLCFIISLLGLANFSLSQTGLDDSTMQSLKSSLNLTSDVDWSNPNPCKWQSVQCDGSNRVTKIQLKQKGIRGTLPTNLQSLSELVILELFLNRISGPIPDLSGLSRLQTLNLHDNLFTSVPKNLFSGMSSLQEMYLENNPFDPWVIPDTVKEATSLQNLTLSNCSIIGKIPDFFGSQSLPSLTNLKLSQNGLEGELPMSFAGTSIQSLFLNGQKLNGSISVLGNMTSLVEVSLQGNQFSGPIPDLSGLVSLRVFNVRENQLTGVVPQSLVSLSSLTTVNLTNNYLQGPTPLFGKSVGVDIVNNMNSFCTNVAGEACDPRVDTLVSVAESFGYPVKLAESWKGNNPCVNWVGITCSGGNITVVNMRKQDLSGTISPSLAKLTSLETINLADNKLSGHIPDELTTLSKLRLLDVSNNDFYGIPPKFRDTVTLVTEGNANMGKNGPNKTSDAPGASPGSKPSGGSDGSETSKKSSNVKIIVPVVGGVVGALCLVGLGVCLYAKKRKRPARVQSPSSNMVIHPHHSGDNDDIKLTVAASSLNSGGGSDSYSHSGSAASDIHVVEAGNLVISIQVLRNVTNNFSEENILGRGGFGTVYKGELHDGTKIAVKRMESSVVSDKGLTEFKSEITVLTKMRHRHLVALLGYCLDGNERLLVYEYMPQGTLSQHLFHWKEEGRKPLDWTRRLAIALDVARGVEYLHTLAHQSFIHRDLKPSNILLGDDMRAKVSDFGLVRLAPDGKYSIETRVAGTFGYLAPEYAVTGRVTTKVDIFSLGVILMELITGRKALDETQPEDSVHLVTWFRRVAASKDENAFKNAIDPNISLDDDTVASIEKVWELAGHCCAREPYQRPDMAHIVNVLSSLTVQWKPTETDPDDVYGIDYDMPLPQVLKKWQAFEGLSQTADDSGSSSSAYGSKDNTQTSIPTRPSGFADSFTSVDGR”, the protein production result is given as “failed”.

For the sequence “MSNSKWWFLLVCFIPAITFASEGGEHSDPVTSVLLGVTTILFLAIIGRYLARLLNQPGVLGELLIGMIVGNLSYFFGSELVVILREGSAIYDVVKEMLAGISLNQAVTHVIHNSYYANQVIHALSGAEGTEYLKIAYVVDIFSRYGVIFLLFMVGLETSLSDLKKTGKESILVAVIGIVAPMILGFVVACFIIPNSNYKINLFIGATLSATSIGITASVLKEMNKLSTREARTILGAATLDDILGLIILAVVSSIVISGAVSIMVVMKIIILALLFFIGTLFMGPFVLRKAVDLFRFLEPWESKLFISFLFIMALAWLASFIQLAAIIGAFAAGVILHDDYFGEQKAHHKDHRSIHHLVSPLETILAPMFFTLIGIQVKLETFYDWNVIVLAGGLSVAAILGKLLSGLGANRRDDRLLIGIGMLPRGEVGLVFASIGRTIGVISDNLFTAIVLMIMITTFIAPPLLKMRYAKPKEDRNA”, the protein production entry is “failed”.

Consider “MSNTIIRSLCVVLFGIAAVPGIADAQSSAYTNSGAELFAGPAPDYPVVAQLPPGTAVDVFGCLSDYSWCDVALPGVRGWIDAQQLDYPYQGNYVPLLEYGAIIGVPVTGFAIGTYWDRYYRHRPWFHDRDRWEHRAEPRVGPGGMPPAYYGRPQPGWPAQREPRGAPPVQHDARPSATRGGWNGPNRAPAPQVAPAPARAPAPMPAPAPMPAPAPIPGAAGVRQPAPPPAQPAQPAPSGGAVQMMPPAHQGGGGYGGRPQGGGDGGGNHGGGGGRGRSDEFRR”, for which the protein production entry is given as “failed”.

Consider “MSNYAAGLGKPGSGKRRIRDLLNQPDNRVCADCGASVPKWAKYQSIHLLKSCGVHRSLGTHILKVLSVTLDEWSDEEVDSMIETGGNASANSIYEAFVPDTCSKPGPDVNHDQRMRFIR”, for which the protein production result is “failed”.

Turning to “MSPAPPRGPGMSQARSLSLILAAVLASLLPVTGSQAGEPGRALWVMSYNIRYDNPDDRPDWRTRRGPMVEQIRFFAPDILGLQEALPAMVDQLAGDLAGYAHYGVGRDDGARLGETTTIFYRAERFQRVLARTYWCSPTPDTPSKAYDAALPRTFTRLVLKDRITGVTFDVRNAHLDHVGAESRAKCAAQILALAPWPKARLITLGDFNSAPEEAPYRLLTAPEGPYRDARAAASSVFSPSTGTFNRFTPASIGPPIDYIFVDRRLNVARFAVPTDVADAGVISDHFPVLAEITLSPKTRAKAKP”, the protein production result was “failed”.

Take “MSPGPQSGGQERGSMERKMVELEDTGLTFATEVDLERLQALAAEWLQVIGEDPGREGLLKTPERVAKAWAFLTRGYRQRLEEVVGGAVFPAEGSEMVVVKGVEFYSMCEHHLLPFFGKVHIGYIPDGKILGLSKFARIVDMFARRLQVQERLAVQIAEAIQEVLEPQGVGVVVEGVHLCMMMRGVEKQHSRTVTSAMLGVFRENQKTREEFLSHLRDGTA”: the protein production entry is “not failed”.

As to “MSPIALARLLTLAAVWGASFLFMRIIAPELGTVPTAFFRVSIACLGLIVILAAARVRWNFQGKLGACLVLGMINSGIPATFYSVAAQVLPAGYSAIFNATTPLMGVLVGVLFFREPMTLAKLCGIFLGLFGVGILSGAGPVALDMALLQGALACLAATTCYGFAGFLARRWISGLDSRLSALGSMLGATLMLTPLFGWSALTQPPASWGGWEVWLSLLGLGLLCTAFAYILYFRLLEEIGPVKASTVTFLIPVFGVLWGAWLLNEPLSMAHLYGGLLIGLALWLVLRPARS”, the protein production entry was “failed”.

Regarding “MSPIEHAVISAAGIGSRLGLNKPKCLVEVGGKTLLAQHLERLAEIPNVWVVVGFQEELVIEQVRNLRRDAIIVRNPDFDRTNTLQSIHRVSRYLDRRFLAVDGDTFIENRSFERFLRAAAGQAGLIGVSRYTTSDGVRVLLDAGGEAVTAFTREPQHAYEWTGIAILRPDMVVDRPIYVYQALEPYLPLPAQELDAFDIDTASDLDMARRVHLNNWNLND”, the protein production result is given as “failed”.

With “MSPIILSITIIAYFMILFAISYIAGHKADNEGFFVGNRKSAWYIVAFAMIGSTISGVTFVSVPGMVQASGFSYLQMVLGFIVGQFIIAFILVPLFYRMNLVSIYEYLENRFGASSYKTGAWFFFISKMLGAAVRLFLVCLTLQLLIFEPFHIPFIINVILTVLIVWLYTFRGGVKSLIWTDVLKTFCLVVSVVLCIYYIASSLHLNFSGLVSTISDNDLSKMFFFDDVNDKRYFFKQFLAGVFTVIAMNGLDQDMMQRNLSCKNFRDSQKNMITSGISQFFVILLFLMLGVLLYTFTARQGIENPGKSDELFPMIATGNYFPGIVGILFIIGLIASAYSAAGSALTALTTSFTVDILNAHKKDEAALSKIRKHVHIGMAFVMGIVIFVFNLLNNTSVIDAIYTLASYTYGPILGLFAFGIFTKKQVYDPYIPLVAILSPALCYVLQRNSEAWFDGYQISYELLILNAAFTFLGLCLLIKRKSSVAPINNSLIKKH”, the protein production result is “failed”.

For the sequence “MSPKKDKFLDNAQKFLVKGQLDRALREYEQAVAIDPKDVRVRQKYAELLVRANRKDDALKEFEVIGKYYSDNGFYLKAIAVYKQIQKLTPSNLDISLTLGALNEKQGLIGNALAEYKFVFDHYERSNRFIDAVAVLEKMLAADRDNLNIRLKLAETRHRANLIDDAYHDYTELARELRSKGDNAAYTRVCERIASMFPDRKDFLLTVAENQIRDGKAAAAIPVLKQIVGDDRWNPKALYLLADAARAVADPAMVKGAYGQIIKRFPGEITAIKGFLFSLKAEGNVDEAVRVLRHVEPELIKAEPETLEQFYLSFRDLSPDHPGIAEGLLRIRGTAGVDEPEPMVEQVPDVAEPEKEADFAPQPEESDSVMEEPPAEDIPWEEEIDISFDSDGASVEGNRPTEGEASESPSFLHDEGMSLVEADESPIRFDDSSEEETREVEVELADFSSITPDWLDGVPDSAMDKPGETTFSEGLSLDFTDGELEDVIPPPPLDSPMPKPDKYGLDGLFSAFKKGVGEQLTQDDTESHYSLGIAYKEMGLFDDAIVEFQSAARDPRRLADCITLQGICSREKGDPAKAEEYFRSGLAVEGLNREERLCLTYELALLYEMIGDRTRALAGYREALALNPGFRDVAQKIAILRSDGDTHDAADLELLDLDEVEEGAG”, the protein production result is listed as “failed”.

Regarding “MSPMSRAGTTVMRRIILMLIYCCLGTGLAGCDYTLREAAIVAPVDPPGGDPVQEPTDVKYYPSDEPVRLGLEHFNRGSYGLSQRYFKDAVEKSPKDLTAWIGLAASYDRLRRFDLADQAYAQAIRLGGETVQILNDQGYSYMLRGNLSAARRKFEKAYSLDPGNPVIANNLELLNGSRRFIERPPNNQP”, the protein production result is given as “failed”.

On to “MSPPLDHAWIAARIPHSGAMCLLDQVVTWDDTHIRCTTTSHRAPDNPLRAHGRLAAVCGIEYAAQAMAVHGAILGNAQDRPRAGFLASVRSVEAHVERLDTIEAPLTIEAERIGGDGNNVLYRFSVRCGERVLLTGRAAVVLDAAGLGLPDAGALAKANAQARLEHHHHHH”, for which the protein production result is “failed”.

As to “MSPTSMYIAWGWKDIIPQLPALIHAFQTSEMNTPKMRRLCKFTALPEAMNNIGDRSDVYSFRIFLGTIITVKVSYETLDRLTARHTSLRCYRVACLRIKYAYYTNNNASPGHSFNIKLNIDTGVKGSI”, the protein production result is “failed”.

“MSQAIPSSRVGVKINEWYKMIRQFSVPDAEILKAEVEQDIQQMEEDQDLLIYYSLMCFRHQLMLDYLEPGKTYGNRPTVTELLETIETPQKKLTGLLKYYSLFFRGMYEFDQKEYVEAIGYYREAEKELPFVSDDIEKAEFHFKVAEAYYHMKQTHVSMYHILQALDIYQNHPLYSIRTIQSLFVIAGNYDDFKHYDKALPHLEAALELAMDIQNDRFIAISLLNIANSYDRSGDDQMAVEHFQKAAKVSREKVPDLLPKVLFGLSWTLCKAGQTQKAFQFIEEGLDHITARSHKFYKELFLFLQAVYKETVDERKIHDLLSYFEKKNLHAYIEACARSAAAVFESSCHFEQAAAFYRKVLKAQEDILKGRVFICLLRKKVMMCLAVTLVFGSMSFPTLTNSGGFKESTDRNTTYIDHSPYKLSDQKKALS”: the protein production entry is listed as “failed”.

“MSQDLIRAAFEKRLSDWAKARTPALPVAWQNTKFTPPAAGVYLRAYVMPAATISRDAAGDHRQYRGVFQVNVVMPIGDGSRSAEQVAAELDALFPVNLVMQSGGLAVRVRTPISNGQPTTGDADHTVPISLGYDVQFYPE”: the protein production result is on record as “not failed”.
